Laboratory results: patent US5703220, “Genes encoding melanocertin-4 receptor and methods of use” (The Regents Of The University Of Michigan, dated 1997)
No end group written: not given here.

T1: mouse melanocortin-5 (mMC5) receptor (mouse)
T1 chain: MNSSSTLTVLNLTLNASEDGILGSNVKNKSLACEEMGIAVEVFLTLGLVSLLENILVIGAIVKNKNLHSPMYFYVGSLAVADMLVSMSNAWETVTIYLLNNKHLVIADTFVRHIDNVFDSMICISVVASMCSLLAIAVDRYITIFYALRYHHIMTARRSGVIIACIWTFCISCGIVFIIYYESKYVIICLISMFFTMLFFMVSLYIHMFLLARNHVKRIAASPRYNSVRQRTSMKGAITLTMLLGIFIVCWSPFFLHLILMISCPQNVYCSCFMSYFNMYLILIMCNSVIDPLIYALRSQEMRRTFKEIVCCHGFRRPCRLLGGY

T2: human melanocortin-1 (MC1) receptor (human)
T2 chain: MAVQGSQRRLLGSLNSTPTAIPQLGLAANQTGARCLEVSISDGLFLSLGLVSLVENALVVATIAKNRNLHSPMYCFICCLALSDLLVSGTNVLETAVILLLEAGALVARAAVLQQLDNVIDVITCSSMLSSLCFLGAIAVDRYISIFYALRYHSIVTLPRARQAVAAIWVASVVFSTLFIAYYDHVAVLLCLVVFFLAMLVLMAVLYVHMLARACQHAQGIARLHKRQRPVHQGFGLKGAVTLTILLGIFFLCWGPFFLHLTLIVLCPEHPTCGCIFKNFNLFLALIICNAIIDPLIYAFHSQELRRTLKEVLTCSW


Experiments:
[1] = molecular target: T1, mouse melanocortin-5 (mMC5) receptor; experiment: competition with radio-iodinated NDP-MSH on L-cells transfected with the mMC5 receptor
[2] = molecular target: T2, human melanocortin-1 (MC1) receptor; experiment: cell-based or functional assay
[3] = molecular target: human melanocortin-3 (MC3) receptor (human); experiment: cell-based or functional assay
Sequence of human melanocortin-3 (MC3) receptor (human) (chain, as listed by the source limits assumed): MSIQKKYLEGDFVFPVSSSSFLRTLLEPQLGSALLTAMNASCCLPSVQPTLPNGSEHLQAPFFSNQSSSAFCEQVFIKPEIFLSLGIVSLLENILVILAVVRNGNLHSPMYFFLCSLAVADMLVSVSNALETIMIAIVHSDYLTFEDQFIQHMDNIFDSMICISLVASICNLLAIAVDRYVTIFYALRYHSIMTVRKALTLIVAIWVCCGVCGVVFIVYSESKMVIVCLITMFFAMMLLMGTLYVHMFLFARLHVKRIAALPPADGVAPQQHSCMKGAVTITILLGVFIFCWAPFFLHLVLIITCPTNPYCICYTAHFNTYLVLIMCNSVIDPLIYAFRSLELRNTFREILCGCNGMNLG

[4] = molecular target: human melanocortin-4 (MC4) receptor (human); experiment: cell-based or functional assay
Sequence of human melanocortin-4 (MC4) receptor (human) (chain, as listed by the source): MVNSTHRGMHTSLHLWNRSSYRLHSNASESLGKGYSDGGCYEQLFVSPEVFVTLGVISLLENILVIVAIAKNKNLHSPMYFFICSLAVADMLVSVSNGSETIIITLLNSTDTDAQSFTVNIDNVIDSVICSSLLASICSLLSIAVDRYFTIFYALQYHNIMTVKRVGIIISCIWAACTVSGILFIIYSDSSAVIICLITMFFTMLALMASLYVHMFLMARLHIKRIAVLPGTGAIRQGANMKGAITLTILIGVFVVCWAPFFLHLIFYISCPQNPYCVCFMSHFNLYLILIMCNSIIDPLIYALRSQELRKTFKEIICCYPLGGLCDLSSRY

fold greater binding affinity than ACTH (1-39) [1] [fold]	ED50 of cAMP generation in transfected L-cells [2] [nM]	ED50 of cAMP generation in transfected L-cells [3] [nM]	EC50 of cAMP increase in transfected L-cells [4] [nM]	binding result [1]	Binder
~10	–	–	–	–	SYSMEHFRWGKPV [ACTH (1-13)]
–	~1	~1	1	binds	SYSMEHFRWGKPVGKKRRPVKVYPNGAEDESAEAFPLEF [human ACTH (1-39)]
–	~1	~1	–	–	Ac-SYSMEHFRWGKPV (ends and bridges not checked) [α-MSH]
